According to paper PMC5146963:
Where “and” joins values, the source holds several entries; their conditions need not be identical. Identical values can stand only once.

Experiments:
[1] = molecular target: T1, EcFrmR (Escherichia coli K12) (UniProt P0AAP3); test: BLI; conditions: BLItz, 50 mM Tris-HCl pH 8.0, 0.5 M NaCl, 20 C; 100 nM biotinylated DNA loaded on SA tips; EcFrmR concentrations as tetramer
T1 sequence: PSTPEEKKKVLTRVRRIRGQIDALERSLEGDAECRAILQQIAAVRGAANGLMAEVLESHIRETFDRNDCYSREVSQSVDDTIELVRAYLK

[2] = tested on: EcFrmR (Escherichia coli K12); test: BLI; conditions: BLItz, 50 mM Tris-HCl pH 8.0, 0.5 M NaCl, 20 C, 100 nM biotinylated DNA loaded on SA tips, EcFrmR concentrations as tetramer

GGCCTTCCCTGCCGATTAGCCCCCCCCCCTTTCCTCTTTGTTTTCCGACCACATTCACCGGATAAATTTTATTCTCCAGTGTTATATACTATAGGGGGGTATGCATTGACATATAGAATACCCCCCTATAGTATATTGCATGCAGATGATGAGGTGCGAAATGCCCAGTACTCCGGAAGAGAAGAAA (double strand) [Pfrm (frmRAB promoter)]
Kd [1]: 220 nM and 520 nM

GTTAAGGGCTCAGAATAATCACATTATTTTTTCTCCTAACCATAAAGGATTAGTTTATCGGCGTTAATCTTTTCTCATACACTATCGGGTTAGGGAAAATATCTGGTGTTGGGGACAGAGTCAGCAGCGTATTAGTTGAATGCTTAATATCAGGCTGCTGAATTGTCAGCACTGTGTTTGCGAAGAGGATGCGAAATAAATGAACCCGGTTGATCGTCCACTATTAG (double strand) [PydhY]
Kd [1]: 3600 nM

Pfrm (frmRAB promoter)
Kd ([2]; Zn(II)4-loaded tetramer, kf 5660 M-1 s-1, kr 0.003 s-1): 520 nM | Kd ([2]; no Zn, no HCHO, kf 13000 M-1 s-1, kr 0.0028 s-1, text ~220, upper limit): 220 nM

PydhY
Kd ([2]; no Zn, no HCHO, kf 1950 M-1 s-1, kr 0.007 s-1, text ~3600): 3600 nM
